Measurements from patent US20230083273A1 (TRUSTEES OF INDIANA UNIVERSITY, published 2023).

Experiments:
[1] = molecular target: T1, HBV Cp149His monomer (Cp149-6xHis half-dimer) (hepatitis B virus (HBV), UniProt P03147 1-149); assay: native mass spectrometry of the purified co-expressed protein; also a single SEC peak at the dimer position and about equal SDS-PAGE bands
T1 construct: also called Cp149His6; CpHis monomer

HBV Cp150 homodimer [2] = molecular target: T2, HBV Cp150 homodimer (hepatitis B virus (HBV), UniProt P03147 1-149); assay: negative-stain EM
T2 chain: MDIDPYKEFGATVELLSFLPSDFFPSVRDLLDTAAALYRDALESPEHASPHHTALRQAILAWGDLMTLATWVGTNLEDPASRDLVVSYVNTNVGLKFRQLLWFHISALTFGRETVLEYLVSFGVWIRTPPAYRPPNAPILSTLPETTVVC

[3] = molecular target: the molecule itself; assay: Ni2+-driven assembly (10 uM heterodimer, 100 uM NiCl2, low ionic strength); SEC, CDMS, negative-stain EM
[4] = molecular target: the molecule itself; assay: SEC of capsid assembly at 300 mM NaCl
HBV Cp150 homodimer [5] = molecular target: T2, HBV Cp150 homodimer; assay: co-assembly at 300 mM NaCl, SEC

B1: HBV Cp149Y132A monomer (Cp149-Y132A half-dimer) (other)
chain: MDIDPYKEFGATVELLSFLPSDFFPSVRDLLDTAAALYRDALESPEHCSPHHTALRQAILCWGDLMTLATWVGTNLEDPASRDLVVSYVNTNVGLKFRQLLWFHISCLTFGRETVLEYLVSFGVWIRTPPAARPPNAPILSTLPETTVV
Does B1 bind [1]?
Result: binds

B2: heterodimer Cp149HisCp149Y132A (other)
chain 1: MDIDPYKEFGATVELLSFLPSDFFPSVRDLLDTAAALYRDALESPEHCSPHHTALRQAILCWGDLMTLATWVGTNLEDPASRDLVVSYVNTNVGLKFRQLLWFHISCLTFGRETVLEYLVSFGVWIRTPPAYRPPNAPILSTLPETTVVHHHHHH
chain 2: MDIDPYKEFGATVELLSFLPSDFFPSVRDLLDTAAALYRDALESPEHCSPHHTALRQAILCWGDLMTLATWVGTNLEDPASRDLVVSYVNTNVGLKFRQLLWFHISCLTFGRETVLEYLVSFGVWIRTPPAARPPNAPILSTLPETTVV
notes: also called Cp149His6Cp149Y132A; asymmetric heterodimer
Does B2 bind (HBV Cp150 homodimer [2])?
Result: binds

Does B2 bind [3]?
Result: binds

B3: HBV Cp149 homodimer (wild-type assembly domain) (other)
chain: MDIDPYKEFGATVELLSFLPSDFFPSVRDLLDTAAALYRDALESPEHCSPHHTALRQAILCWGDLMTLATWVGTNLEDPASRDLVVSYVNTNVGLKFRQLLWFHISCLTFGRETVLEYLVSFGVWIRTPPAYRPPNAPILSTLPETTVV
notes: also called wild-type homodimer Cp149
Does B3 bind [4]?
Result: binds

B4: Cp149HisCp149Y132A hexamer (hexamer of heterodimers assembled with Ni2+) (other)
chain 1: MDIDPYKEFGATVELLSFLPSDFFPSVRDLLDTAAALYRDALESPEHCSPHHTALRQAILCWGDLMTLATWVGTNLEDPASRDLVVSYVNTNVGLKFRQLLWFHISCLTFGRETVLEYLVSFGVWIRTPPAYRPPNAPILSTLPETTVVHHHHHH
chain 2: MDIDPYKEFGATVELLSFLPSDFFPSVRDLLDTAAALYRDALESPEHCSPHHTALRQAILCWGDLMTLATWVGTNLEDPASRDLVVSYVNTNVGLKFRQLLWFHISCLTFGRETVLEYLVSFGVWIRTPPAARPPNAPILSTLPETTVV
notes: also called heterodimer hexamer; hexamers
Does B4 bind (HBV Cp150 homodimer [5])?
Result: binds
